Source: patent US20250326827A1 (SCHOLAR ROCK, published 2025)

Molecular target: latent myostatin (human, UniProt O14793 24-266; O14793 267-375)
Assay: cell-based or functional assay

B1: Apitegromab (antibody, human IgG4 S228P, lambda, V domains shown)
VH: QVQLVESGGGVVQPGRSLRLSCAASGFTFSSYGMHWVRQAPGKGLEWVAVISYDGSNKYYADSVKGRFTISRDNSKNTLYLQMNSLRAEDTAVYYCARDLLVRFLEWSHYYGMDVWGQGTTVTVSS
VL: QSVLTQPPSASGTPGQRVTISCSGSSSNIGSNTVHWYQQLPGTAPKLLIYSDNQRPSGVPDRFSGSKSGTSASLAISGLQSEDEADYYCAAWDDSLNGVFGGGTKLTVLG
- target engagement, as measured by latent myostatin (serum level after treatment vs baseline; 2 mg/kg and 20 mg/kg IV every 4 weeks): 100 fold
